Assay results from patent US20230119066A1 (Bristol-Myers Squibb, published 2023).
Blank lines part the entries; values can stand above or below the binder they belong to.

Key:
[1] = molecular target: T1, CCR8 N-terminal peptide (SPR of Example 10) (human, sulfation not stated in Example 10; the panning peptide was biotinylated); assay: SPR; 14S15h Fab fragment, humanized, affinity-matured
T1 construct: also called biotinylated CCR8 N-terminal peptide from Anaspec

[2] = molecular target: T2, human C-C Motif Chemokine Receptor 8 (hCCR8) (human, UniProt P51685 1-355); assay: cell-based or functional assay
[3] = molecular target: T2, human C-C Motif Chemokine Receptor 8 …; assay: cell-based or functional assay; remark: listed apart in the source
[4] = molecular target: T2, human C-C Motif Chemokine Receptor 8 …; assay: cell-based or functional assay; remark: listed apart in the source
[5] = molecular target: T2, human C-C Motif Chemokine Receptor 8 …; assay: flow cytometry, binding to activated human Tregs, median EC50
Method: Activated Tregs prepared from previously isolated and expanded Tregs were stimulated for 2 days with anti-CD3/CD28 activation beads (ThermoFisher) in the presence of 100 units/ml of recombinant human IL-2. The Abs were serially diluted from a starting concentration of 30 μg/ml. An appropriate PE-conjugated secondary Ab (Jackson ImmunoResearch) against the primary anti-CCR8 Ab was applied, incubated for 15 min at 4° C., and then washed off. EC₅₀ values for the binding of selected anti-CCR8 mAbs to activated Tregs, was calculated using GraphPad Prism (GraphPad Software, La Jolla, Calif.).
A select subset of Abs having EC₅₀ values ranging from picomolar to nanomolar is presented in FIG. 11B, and the respective EC₅₀ values are provided in Table 4.

[6] = molecular target: T1, CCR8 N-terminal peptide (SPR of Example …); assay: SPR; starting mouse Ab 9G10, before humanization

B1: 14S15h Fab fragment (Fab, V domains shown)
VH: EVQLVESGGGLVKPGGSLRLSCAASGFRFGPYAMNWVRQAPGKGLEWVGRIRSKSNNYETYYADSVKDRFTISRDDSKNTLYLQMNSLKTEDTAVYYCVGYSDLYVLDYWGQGTLVTVSS
VL: DIVMTQTPPSLPVNPGEPASISCRSSKSLLHSQGNTFLYWYLQKPGQSPQLLIYRMSNLASGVPDRFSGSGSGSDFTLKISWVEAEDVGVYYCMQHLEYPFTFGPGTKVDIK
notes: Tested as a Fab fragment whose constant parts are not delimited
Kd [1]: 0.64 nM

B4: 9G10, starting mouse anti-CCR8 mAb of 14S15 and 14S15h (antibody, V domains shown)
VH: EVQLVEFGGGLVQPKGSLKLSCVVSGFRFNPYAMNWVRQAPGKGLEWLGRIRSKSNNYETYYADSVKDRFIISRDDSQKMVYLQMNNVKTEDTAMYYCVGYSDLYVLDYWGQGTSVTVSS
VL: DIVMTQAAPSVPVTPGESVSISCRSSKSLLHSNGNTFLYWFLQRPGQSPQLLIYRMSNLASGVPHRFSGSGSGTAFTLRISRVEAEDVGVYYCMQHLEYPFTFGSGTKLEIK
notes: also called starting mouse Ab; starting mouse mAb
Kd [6]: 1.4 nM

B5: mAb 12F27 (antibody, V domains shown)
VH: QVQLVESGGGVVQPGRSLRLSCAASGFSFRSYGIHWVRQAPGKGLEWVAVISYEGSNKRYADSVKGRFTISRDNSKSTLSLQMNSLRAEDTAVYYCAKGRRPSGEGAFDIWGQGTMVTVSS
VL: DIQMTQSPSSLSASVGDRVTITCRASQGISSWLAWYQQKPEKAPKSLIYAASSLQSGVPSRFSGSGSGTDFTLTISSLQPEDFATYYCQQYNSFPPTFGQGTKVEIKR
Median EC50 (pM), ADCC killing of activated Tregs by allogeneic NK cells [4]: 304000 pM

Now from value to binder, other results behind:

EC50 (pM), cross-linking of CD16 expression reporter cells [2]: 0.69 pM | IC50 (nM), blockade of calcium flux on CCR8-expressing cells [3]: 0.465 nM | EC50 [5]: 1.65 nM
B2: mAb 4A19, nonfucosylated humanized IgG1 anti-hCCR8 (antibody, V domains shown)
VH: QVQLVQSGAEVKKPGASVKVSCKASGYTFTDSEMHWVRQATGQGLEWMGAIQPETGGTAYNQKFKARVTMTRDTSISTAYMELSSLRSEDTAVYYCARRRRNFDYWGQGTLVTVSS
VL: DIVMTQTPLSLSVTPGQPASISCRSSQSLFHSSGNTYLHWYLQKPGQPPQLLIYKVSNRFSGVPDRFSGSGSGTDFTLKISRVEAEDVGVYYCSQSTHVPFTFGQGTKLEIKR
notes: hIgG1-nf, expressed in Expi293 Fut8-/- cells; also called CCR8-nf; A419
Median EC50 (pM), ADCC killing of activated Tregs by allogeneic NK cells [4]: 13.1 pM

EC50 (pM), cross-linking of CD16 expression reporter cells [2]: 8.02 pM | IC50 (nM), blockade of calcium flux on CCR8-expressing cells [3]: 1.33 nM | EC50 [5]: 0.252 nM
B3: mAb 14S15, nonfucosylated chimeric mouse-human anti-hCCR8 (antibody, human IgG1, kappa, V domains shown)
VH: B4 VH
VL: DIVMTQAAPSVPVTPGESVSISCRSSKSLLHSNGNTFLYWFLQRPGQSPQLLIYRMSNLASGVPHRFSGSGSGTAFTLRISRVEAEDVGVYYCMQHLEYPFTFGSGTKLEIKR
notes: Chimeric version with nf human IgG1 Fc; also called 14S15-IgG1-nf; CCR8.2
Median EC50 (pM), ADCC killing of activated Tregs by allogeneic NK cells [4]: 39.7 pM
